Test results published in patent US20210261685A1 (Alector, published 2021).
Residue numbers refer to the chain shown, from its start.

T1: human MerTK endogenously expressed on cells (SK-MEL-5 cells; human macrophages) (human, UniProt Q12866 21-999)
T1 sequence: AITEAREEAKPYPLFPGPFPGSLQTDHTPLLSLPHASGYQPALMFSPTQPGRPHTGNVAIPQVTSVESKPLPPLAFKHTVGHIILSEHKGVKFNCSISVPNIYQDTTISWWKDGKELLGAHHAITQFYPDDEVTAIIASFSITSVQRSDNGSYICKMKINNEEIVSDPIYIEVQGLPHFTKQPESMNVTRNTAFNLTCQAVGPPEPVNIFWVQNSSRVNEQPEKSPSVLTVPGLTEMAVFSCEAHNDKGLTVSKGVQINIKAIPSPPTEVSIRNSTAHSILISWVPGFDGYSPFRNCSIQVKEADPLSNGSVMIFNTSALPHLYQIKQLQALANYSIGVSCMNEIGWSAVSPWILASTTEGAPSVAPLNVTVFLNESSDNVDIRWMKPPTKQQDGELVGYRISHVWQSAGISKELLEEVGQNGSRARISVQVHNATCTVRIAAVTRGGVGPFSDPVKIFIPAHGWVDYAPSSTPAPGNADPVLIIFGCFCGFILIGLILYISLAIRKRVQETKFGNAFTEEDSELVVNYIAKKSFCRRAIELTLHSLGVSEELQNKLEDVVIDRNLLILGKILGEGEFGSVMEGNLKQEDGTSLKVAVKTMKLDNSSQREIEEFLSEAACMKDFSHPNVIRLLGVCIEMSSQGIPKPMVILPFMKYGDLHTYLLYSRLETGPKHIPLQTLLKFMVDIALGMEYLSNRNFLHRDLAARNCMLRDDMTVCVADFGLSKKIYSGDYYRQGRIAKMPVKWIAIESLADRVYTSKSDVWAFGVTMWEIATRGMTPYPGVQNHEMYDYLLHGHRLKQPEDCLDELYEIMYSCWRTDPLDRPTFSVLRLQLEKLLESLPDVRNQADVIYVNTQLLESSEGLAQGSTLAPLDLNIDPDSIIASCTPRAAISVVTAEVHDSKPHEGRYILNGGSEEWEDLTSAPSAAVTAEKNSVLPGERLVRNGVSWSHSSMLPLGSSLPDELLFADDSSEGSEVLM

T2: Recombinant human MerTK human Fc Chimera protein (R&D systems, Cat #391-MR-100) (human, UniProt Q12866 26-499, limits assumed)
T2 construct: Bought; also called recombinant human MerTK protein; MerTK-Fc
T2 sequence: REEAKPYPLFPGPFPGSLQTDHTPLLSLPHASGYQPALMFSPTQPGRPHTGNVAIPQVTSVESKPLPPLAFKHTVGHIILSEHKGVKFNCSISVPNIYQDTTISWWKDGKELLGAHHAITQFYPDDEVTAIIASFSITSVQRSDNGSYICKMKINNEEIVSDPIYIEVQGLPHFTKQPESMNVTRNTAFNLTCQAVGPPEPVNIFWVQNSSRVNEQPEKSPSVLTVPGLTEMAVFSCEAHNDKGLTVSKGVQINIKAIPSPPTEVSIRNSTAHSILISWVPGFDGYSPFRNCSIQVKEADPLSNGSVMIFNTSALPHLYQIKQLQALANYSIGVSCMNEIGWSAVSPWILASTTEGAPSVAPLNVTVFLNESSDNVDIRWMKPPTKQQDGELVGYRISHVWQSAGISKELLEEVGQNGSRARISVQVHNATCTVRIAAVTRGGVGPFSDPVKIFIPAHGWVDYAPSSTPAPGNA

B1: MTK-20 (antibody, human IgG1, V domains shown)
VH: QIQLVQSGPELKKPGETVKISCKASGYTFTNYGMTWVKQAPGKGLKWMGWINTYTGEPTYADDFKGRFALSLETSASTAYLQINNLKNEDTATYFCARGGGRLGLRPLDYWGQGTTLTVSS
VL: DIQMTQTTSSLSASLGDRVTISCRASQDINNYLNWYQQKPDGTVKLLIYYTSRLHSGVPSRFSGSGSGTDYSLTISNLEQEDIATYFCQQGNTLPWTFGGGTKLEIK
B2: MTK-18 (antibody, human IgG1, V domains shown)
VH: B1 VH with N31H, L70F, R102Q
VL: B1 VL with I21F, D28A, N30S
B3: MTK-12 (antibody, human IgG1, V domains shown)
VH: QVQLQQSGPQLVRPGASVKISCKASGYSFTSHWMHWVKQRPGQGLEWIGMIDPSDGESRLNQKFKDKATLTVDKSSSTAYMQLSSPTFEDSAVYYCARGIYYYGITYAMDYWGQGTSVTVSS
VL: QIVLTQSPAIMSASPGEKVTMTCSASSSVSYMYWYQQKPRSSPRLLIYDTSNLASGVPVRFSGSGSGTSYSLTISRMEAEDAATYYCQQWSSYPLTFGAGTKLELK
B4: MTK-03 (antibody, human IgG1, V domains shown)
VH: DVQLQESGPGLVKPSQSLSLTCSVTGYSITSGYYWNWIRQFPGNTLEWMGYMSFDGDNKFNPSLKNRISITRDTSKNQFFLRLNSVTTEDTATYYCARGGYNYGSTEANWGQGTLVTVSA
VL: QIVLTQSPAIMSAFPGEKVTITCSASSSVNYMHWFQQKPGTSPKLWIYSTSNLASGVPARFSGSGSGTSYSLTISRMEAEDAATYYCQQRSSYPFTFGSGTKLEIK
B5: MTK-07 (antibody, human IgG1, V domains shown)
VH: B4 VH with A120T
VL: B4 VL with N30T, Y48F
B6: MTK-17 (antibody, human IgG1, V domains shown)
VH: QIQLVQSGPELKKPGETVKISCKASGYTFTNFGMNWVKQAPGKGLKWMGWINTYTGEPTYADDFKGRFAFSLETSASTAYLQINNLKNEDTATYFCSRGAVLRAGAMDCWGQGTSVTVSS
VL: DIQMTQSSSYLSVSLGGRVTITCKASDHINNWLAWYQQKPGNAPRLLISGATSLETGVPSRFSGSGSGKDYTLSITSLQTEDVATYYCQQYWSTPRTFGGGTKLEIK
B7: MTK-15 (antibody, human IgG1, V domains shown)
VH: QIQLVQSGPELKKPGETVKISCKASGYTFTNYGVHWVKQAPGKGLKWMGWINTYTGEPTYADDFKGRFAFSLETSASTAYLQINNLKNEDMATYFCARGNRYAYMDYWGQGTSVTVSS
VL: QIVLSQSPAILSASPGEKVTMTCRASSSVSYMHWYQQKSGSSPKPWIYATSNLASGVPARFSGSGSGTSYSLTISRVEAEDAATYYCQQWSSNPRTFGGGTKLEIK
B8: MTK-16 (antibody, human IgG1, V domains shown)
VH: LIQLVQSGPELKKPGETVKISCKASGYTFTNHGMNWVKQDPGKGLKWMGWINTYTGEPTYADDFKGRFVFSMETSASAAFLQINNLKNEDTATYFCARKGVTAARYFDYWGQGTTLTVSS
VL: DIVMTQSPKFMSTSVGDRVSITCKASQNVRTAVAWYKKKPGQSPKALINLASNRHTGVPDRFTGSGSGTDFTLTISNVQSEDLADYFCLQHWNYPLTFGGGTKLEIK
B9: MTK-11 (antibody, human IgG1, V domains shown)
VH: QVQLKQSGPGLVQPSQSLSITCTVSGFSLTDYGVHWVRQSPGKGLEWLGVIWSSGTTDYNEAFISRLSISKDNSKSHVFFKMNSLQAIDTAIYYCARKGHDPYAMDYWGQGTSVTVSS
VL: QIVLTQSPAIMSASLGERVTMTCTASSSISSSYFHWYQQKPGSSPKLWIYSTSNLPSGVPARFSGSGSGTSYSLTISSMEAEDAATYYCHQYYRSPLTFGAGTKLELK

Molecular target: T1, human MerTK endogenously expressed on …
Assay: cell-based or functional assay

Row | Binder | Gas6-mediated pAKT activity, average IC50, human M2c macrophages
1 | B1 | 1.48 nM
2 | B2 | 1.3 nM
3 | B3 | 1.28 nM
4 | B4 | 19 pM
5 | B5 | 0.371 nM
6 | B6 | 3.42 nM
7 | B7 | 2.8 nM
8 | B8 | 7.74 nM
9 | B9 | 2.63 nM

Molecular target: T2, Recombinant human MerTK human Fc …
Assay: competition ELISA, His-Gas6 on captured MerTK-Fc
Experimental: Rabbit anti-human IgG polyclonal antibody (Jackson ImmunoResearch, Cat #309-005-008) was captured to a high-protein binding plate at 2 μg/ml 4° C. overnight. After washing with 0.05% Tween20 in PBS three times, 5% BSA in PBS was added for 1 hour. Recombinant human MerTK human Fc Chimera protein (R&D systems, Cat #391-MR-100) was added at 2 μg/ml for 1 hour and the plates were then washed. Anti-MerTK antibodies were titrated to final concentration range of between 66.6 nM to 4 pM and then 40 μl of serially diluted antibody and 40 μl of His tag-conjugated recombinant Gas6 protein (R&D systems, Cat #885-GSB-050) at 3 μg/ml or His tag-conjugated recombinant ProS protein (R&D systems, Cat #9489-PS-100) at 20 μg/ml. After a further incubation for 1 hour, plates were washed and incubated for 1 hour with HRP-conjugated anti-6×His tag antibody (Abcam, Cat #ab1187). Plates were then washed and an HRP substrate (TMB) was used to develop the plates. After sufficient color change was observed, the reaction was stopped by adding 50 μl 2N H₂SO₄ and the OD was measured using a spectrophotometer (BioTek).
From these experiments, IC50 values [nM] were determined using OD450 values obtained from the dose-response curves analyzed with Prism software. Table 14 and Table 15 show IC50 values determined for anti-MerTK antibody blocking of Gas6 ligand binding and ProS ligand binding to MerTK. […] Dashes indicate lack of significant blocking; “n.a.” indicates data not available.

Row | Binder | IC50
10 | B1 | 4.96 nM
11 | B2 | 4.22 nM
12 | B3 | 26 nM
13 | B4 | 8.53 nM
14 | B5 | 7.97 nM
15 | B6 | 14.5 nM
16 | B8 | 6.32 nM
